Consider 62 sequences from the supplement of paper PMC7877785.

± gives the uncertainty stated by the source.

The series in a line: self-splicing fitness, log relative to wild type (ln ratio); higher = more splicing; Tetrahymena group I intron in knt gene, E. coli kanamycin selection, DiMSum; sequences stand for … in CUCUCU…GGAGGGAAAAGUUAUCAGGCAUGCACCUGGUAGCUAGUCUUUAAACCAAUAGAUUGCAUCGGUUUAAAAGGCAAGACCGUCAAAUUGCGGGAAAGGGGUCAACAGCCGUUCAGUACCAAGUCUCAGGGGAAACUUUGAGAUGGCCUUGCAAAGGGUAUGGUAAUAAGCUGACGGACAUGGUCCUAACCACGCAGCCAAGUCCUAAGUCAACAGAUCUUCUGUUGAUAUGGAUGCAGUUCACAGACUAAAUGUCGGUCGGGGAAGAUGUAUUCUUCUCAUAAGAUAUAGUCGGACCUCUCCUUAAUGGGAGCUAGCGGAUGAAGUGAUGCAACACUGGAGCCGCUGGGAACUAAUUUGUAUGCGAAAGUAUAUUGAUUAGUUUUGGAGUACUCGUGGUCG
The essentials: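 Six replicate transformations of E. coli BL21(DE3) with a pET-22b(+) library were grown overnight at 37°C or 30°C. The library randomised all eight P1ex-region intron nucleotides, the intron lying in the knt kanamycin-resistance gene, and plates were LB agar with or without 25 μg/mL kanamycin plus 100 μg/mL carbenicillin, 50 μM IPTG and 0.2% rhamnose. Pooled colonies were amplicon-sequenced on an Illumina HiSeq 2500, and fitness is the DiMSum error-weighted combination of wild-type-normalised replicate fold changes, kanamycin versus none.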

For the sequence GUAUAGCAAUAUUACGGUCU, the “self-splicing fitness (ln)” value was -1.47 ± 0.11 (30 °C) and -0.548 ± 0.16 (37 °C).
Regarding UCGCAGCAAUAUUACGUCUC, the “self-splicing fitness (ln)” value (37 °C) was -1.97 ± 0.27.
For AGGCAGCAAUAUUACGUCUC, the “self-splicing fitness (ln)” value is -4.52 ± 0.23 (30 °C) and -2.03 ± 0.14 (37 °C).
Turning to CUCCAGCAAUAUUACGGUUC, the “self-splicing fitness (ln)” value is, setting by setting: (30 °C) -2.51 ± 0.17; (37 °C) -3.19 ± 0.35.
With CAACAGCAAUAUUACGCACA, the “self-splicing fitness (ln)” value reads like this: (30 °C) -1.23 ± 0.077; (37 °C) -0.561 ± 0.083.
For UGUUAGCAAUAUUACGUCGC, the “self-splicing fitness (ln)” value is -3.73 ± 0.18 (30 °C) and -2.23 ± 0.18 (37 °C).
The matching figures for GGCAAGCAAUAUUACGCGGA: -0.732 ± 0.095 and -0.268 ± 0.094.
As to GGACAGCAAUAUUACGACUG, the “self-splicing fitness (ln)” value (30 °C) is -0.809 ± 0.12 and the “self-splicing fitness (ln)” value (37 °C) is -0.232 ± 0.17.
The matching figures for CAGGAGCAAUAUUACGGCCU: -2.22 ± 0.24 and -1.42 ± 0.31.
The matching figures for AUGGAGCAAUAUUACGCAAU: -1.33 ± 0.19 and -1.44 ± 0.24.
The matching figures for GCACAGCAAUAUUACGUUAU: -1.14 ± 0.044 and -0.44 ± 0.054.
Regarding UAACAGCAAUAUUACGCAGU, the “self-splicing fitness (ln)” value runs as follows: (30 °C) -3.43 ± 0.19; (37 °C) -3.5 ± 0.27.
The matching figures for UAAAAGCAAUAUUACGGAUG: -0.849 ± 0.077 and 0.0272 ± 0.099.
The matching figures for CCGAAGCAAUAUUACGCGAG: -2.65 ± 0.11 and -2.08 ± 0.15.
The matching figures for CGAGAGCAAUAUUACGGCCG: -3.76 ± 0.43 and -1.02 ± 0.3.
Consider UCUCAGCAAUAUUACGUUUC, for which the “self-splicing fitness (ln)” value was -4.29 ± 0.42 (30 °C) and -1.97 ± 0.34 (37 °C).
ACGGAGCAAUAUUACGUGUC: the “self-splicing fitness (ln)” value is -4.54 ± 0.46 (30 °C) and -1.8 ± 0.18 (37 °C).
With CAGGAGCAAUAUUACGUAUC, the “self-splicing fitness (ln)” value is -3.11 ± 0.23 (30 °C) and -3.54 ± 0.27 (37 °C).
For the sequence UAAGAGCAAUAUUACGGCGA, the “self-splicing fitness (ln)” value runs as follows: (30 °C) -2.7 ± 0.32; (37 °C) -2.09 ± 0.26.
The matching figures for GACGAGCAAUAUUACGACGC: -0.758 ± 0.13 and -0.747 ± 0.15.
As for UUCAAGCAAUAUUACGCGAC, the “self-splicing fitness (ln)” value is -2.61 ± 0.24 (30 °C) and -1.91 ± 0.2 (37 °C).
As to UCUAAGCAAUAUUACGCUGG, the “self-splicing fitness (ln)” value runs as follows: (30 °C) -2.53 ± 0.12; (37 °C) -2.92 ± 0.24.
As for CAGUAGCAAUAUUACGUCAG, the “self-splicing fitness (ln)” value reads like this: (30 °C) -0.873 ± 0.07; (37 °C) 0.623 ± 0.095.
As for CAUGAGCAAUAUUACGGGAA, under “37 °C”, the “self-splicing fitness (ln)” value was -1.66 ± 0.25.
Turning to UCACAGCAAUAUUACGUUUC, the “self-splicing fitness (ln)” value by setting is: (30 °C) -3.8 ± 0.19; (37 °C) -3.02 ± 0.21.
UUCGAGCAAUAUUACGCGGC: the “self-splicing fitness (ln)” value (37 °C) is -2.29 ± 0.49.
As for CAAAAGCAAUAUUACGGCCA, the “self-splicing fitness (ln)” value (30 °C) is -1.68 ± 0.21 and the “self-splicing fitness (ln)” value (37 °C) was -0.283 ± 0.16.
Regarding GUCUAGCAAUAUUACGAUCG, the “self-splicing fitness (ln)” value by setting is: (30 °C) -3.06 ± 0.17; (37 °C) -1.09 ± 0.16.
Turning to UAUGAGCAAUAUUACGUGAG, the “self-splicing fitness (ln)” value is, setting by setting: (30 °C) -2.91 ± 0.14; (37 °C) -2.74 ± 0.23.
Consider CUUGAGCAAUAUUACGUAAU, for which the “self-splicing fitness (ln)” value (30 °C) was -2.79 ± 0.18 and the “self-splicing fitness (ln)” value (37 °C) was -2.81 ± 0.24.
The matching figures for GCAAAGCAAUAUUACGUGUG: -1.99 ± 0.046 and -0.419 ± 0.052.
As for AUCGAGCAAUAUUACGGCUG, the “self-splicing fitness (ln)” value by setting is: (30 °C) -1.8 ± 0.24; (37 °C) -0.221 ± 0.35.
The matching figures for ACUCAGCAAUAUUACGGGAU: -1.32 ± 0.056 and -0.522 ± 0.076.
In the case of UGGCAGCAAUAUUACGCAUU, the “self-splicing fitness (ln)” value is -1.05 ± 0.097 (30 °C) and -0.267 ± 0.089 (37 °C).
As for AUCGAGCAAUAUUACGGUAG, where the note is “37 °C”, the “self-splicing fitness (ln)” value is -1.93 ± 0.27.
Turning to GUUAAGCAAUAUUACGUGUC, the “self-splicing fitness (ln)” value reads like this: (30 °C) -2.09 ± 0.089; (37 °C) -0.788 ± 0.11.
Take GGGCAGCAAUAUUACGAGGA: the “self-splicing fitness (ln)” value (37 °C) was -2.97 ± 0.47.
For the sequence UAACAGCAAUAUUACGGAAU, the “self-splicing fitness (ln)” value was -3.31 ± 0.14 (30 °C) and -2.24 ± 0.15 (37 °C).
The matching figures for UAAGAGCAAUAUUACGCCUU: -3.87 ± 0.25 and -2.89 ± 0.48.
The matching figures for GAUAAGCAAUAUUACGCGCC: -1.76 ± 0.17 and -1.31 ± 0.26.
The matching figures for UAACAGCAAUAUUACGGAAG: -2.59 ± 0.12 and -1.93 ± 0.12.
Take UCGUAGCAAUAUUACGAGUG: the “self-splicing fitness (ln)” value is, setting by setting: (30 °C) -3.62 ± 0.32; (37 °C) -3.09 ± 0.3.
Consider UCACAGCAAUAUUACGCAAU, for which the “self-splicing fitness (ln)” value (37 °C) is -2.13 ± 0.14.
Turning to UAAUAGCAAUAUUACGUUAA, the “self-splicing fitness (ln)” value (30 °C) is -3.02 ± 0.23 and the “self-splicing fitness (ln)” value (37 °C) is -2.53 ± 0.19.
The matching figures for UUUCAGCAAUAUUACGAGUA: -1.3 ± 0.11 and -0.691 ± 0.1.
The matching figures for ACGUAGCAAUAUUACGAUUG: -2.78 ± 0.11 and -1.99 ± 0.12.
For UCGUAGCAAUAUUACGUCAG, the “self-splicing fitness (ln)” value is -3.66 ± 0.48 (30 °C) and -1.89 ± 0.29 (37 °C).
As to GGAGAGCAAUAUUACGGUCG, the “self-splicing fitness (ln)” value is, setting by setting: (30 °C) -1.18 ± 0.25; (37 °C) -1.56 ± 0.29.
With GUUAAGCAAUAUUACGUGGA, the “self-splicing fitness (ln)” value by setting is: (30 °C) -2.84 ± 0.15; (37 °C) -2.31 ± 0.15.
The matching figures for GUAAAGCAAUAUUACGUAUC: -1.1 ± 0.07 and -0.568 ± 0.098.
Turning to UUUCAGCAAUAUUACGGGGG, the “self-splicing fitness (ln)” value (30 °C) is -2.22 ± 0.15 and the “self-splicing fitness (ln)” value (37 °C) is -1.45 ± 0.16.
The matching figures for UGGUAGCAAUAUUACGGGCA: -0.0931 ± 0.13 and 0.591 ± 0.13.
Regarding GGUGAGCAAUAUUACGCGAU, the “self-splicing fitness (ln)” value (30 °C) was -3.7 ± 0.46.
For the sequence CUACAGCAAUAUUACGCCCC, the “self-splicing fitness (ln)” value by setting is: (30 °C) -2.86 ± 0.41; (37 °C) -1.4 ± 0.35.
The matching figures for UAAUAGCAAUAUUACGUGUU: -1.68 ± 0.14 and -1.97 ± 0.17.
In the case of GGGUAGCAAUAUUACGAGGG, the “self-splicing fitness (ln)” value runs as follows: (30 °C) -3.42 ± 0.33; (37 °C) -2.55 ± 0.33.
For the sequence AUCCAGCAAUAUUACGGGUA, the “self-splicing fitness (ln)” value was -1.58 ± 0.1 (30 °C) and -1.21 ± 0.089 (37 °C).
Consider AGACAGCAAUAUUACGUCGA, for which the “self-splicing fitness (ln)” value was -1.01 ± 0.089 (30 °C) and -1.07 ± 0.12 (37 °C).
For GGCUAGCAAUAUUACGUUCC, the “self-splicing fitness (ln)” value by setting is: (30 °C) -1.62 ± 0.11; (37 °C) -0.39 ± 0.11.
The matching figures for GAUGAGCAAUAUUACGAUAC: -3.7 ± 0.38 and -0.654 ± 0.2.
Regarding CUUUAGCAAUAUUACGCAAG, the “self-splicing fitness (ln)” value was -2.43 ± 0.22 (30 °C) and -1.67 ± 0.3 (37 °C).
As to CCAAAGCAAUAUUACGUAAG, the “self-splicing fitness (ln)” value (30 °C) was -0.334 ± 0.049 and the “self-splicing fitness (ln)” value (37 °C) was 0.53 ± 0.071.
